{"source": "patent US7247441B2", "about": "“Nucleic acid sequence and protein in addition to polypeptides coding for mannitol dehydrogenases or parts thereof and the production and use thereof in diagnosis and therapy” (Biomay Produktions- Und Handels-Aktienge Sellschaft, priority 2002, dated 2007)", "key": {"[1]": {"system": "IgE of sera of Alternaria alternata-sensitized patients", "assay": "IgE immune blot of recombinant Alternaria alternata mannitol dehydrogenase with the sera of 28 patients", "assay_type": "binding, human", "from_the_text": "The following procedure was chosen for purifying the recombinantly produced protein, which is provided with a poly-His fragment at the C terminus: the E. coli cells with the expression vector, which express the foreign protein, the Alternaria alternata mannitol dehydrogenase, were first lysed in the customary manner. […] The inclusion bodies formed by overexpression of the foreign protein were first solubilized in a buffer with 6-molar urea and subsequently purified by affinity chromatography over a nickel chelate column. The recombinantly produced mannitol dehydrogenase was applied in 6 M urea buffer. Imidazole buffer was employed for the elution. The protein-comprising fractions were subsequently purified further by preparative SDS-PAGE gel electrophoresis and analyzed, during which process it emerged that the allergen was already purified to virtually complete homogeneity.\nThe protein prepared in accordance with example 10 was separated by gel electrophoresis and tested in an IgE immune blot with the sera of 28 patients. All of the 28 sera originated from patients who had shown a positive response to the Alternaria alternata crude extract and who had been pretested both in a skin test and in an RAST. A pronounced band was visible in the immune blot in the case of 9 of the patients' sera tested. This corresponds to approximately 32% of the Alternaria alternata-sensitized patients."}, "IgE of patients' sera": {"system": "IgE of patients' sera", "assay": "IgE immunoblots of Cladosporium herbarum crude extract with sera from 62 patients", "assay_type": "binding, human", "conditions": "sera from 62 patients preselected in skin test or RAST, positive to Cladosporium herbarum extract", "protocol": "For the purposes of the present invention, IgE immunoblots of Cladosporium herbarum crude extract were assayed with sera from 62 patients. An immunoreactive protein of molecular weight 29 kD, which was recognized by 61% of the patients' sera, was identified. […] No other allergen in the Cladosporium herbarum extract reacted with such a high percentage of patients' sera. It is therefore assumed that this protein is the major allergen of Cladosporium herbarum."}, "[2]": {"system": "IgE antibodies of C. herbarum allergy sufferers", "assay": "IgE immune blot of the native purified MtDH after separation in the SDS gel", "assay_type": "binding, human", "protocol": "The protein was purified to homogeneity in a conventional method (example 1). The yield amounted to 1 mg.\nNative purified MtDH was separated by molecular weight in a reducing SDS gel (Laemmli U K, Nature, 1970; 27:680–5). Subsequently, the protein was transferred onto a PVDF membrane in a Western blot (Towbin H et al., Proc. Natl. Acad. Sci USA, 1979; 76:4350–4). After free binding sites had been saturated (30 minutes in blocking buffer: 50 mM sodium phosphate pH 7.5, 0.5% Tween 20, 0.5% BSA, 0.05% NaN3), the membrane was incubated with patients' serum (1:10 diluted in blocking buffer). Then, the membrane was washed (with blocking buffer, 3×10 minutes) to remove unspecifically bound antibodies. Specifically bound IgE-Ab were detected with the aid of an ^125I-labeled rabbit anti-human IgE antibody. After the membrane had been exposed to an X-ray film, the result was available."}, "[3]": {"system": "IgE antibodies of C. herbarum allergy sufferers", "assay": "IgE immune blot of the native purified MtDH after 2-dimensional separation", "assay_type": "binding", "conditions": "patients' serum 1:10, 125I-labeled anti-human IgE", "from_the_text": "(§1) Native purified MtDH was separated under denaturing conditions in an isoelectric focusing (O'Farrel P H, J. Biol. Chem., 1975; 250:4007–21) according to the net charge (isoelectric point) of the protein. Thereafter, the protein separated thus was subjected to SDS gel electrophoresis (Laemmli U K, Nature, 1970; 27:680–5), whereby a separation by molecular weight took place in addition. The protein was transferred to a PVDF membrane in a Western blot (Towbin H et al., Proc. Natl. Acad. Sci. USA, 1979; 76:4350–4). After free binding sites had been saturated (30 minutes in blocking buffer: 50 mM sodium phosphate pH 7.5, 0.5% Tween 20, 0.5% BSA, 0.05% NaN3), the membrane was incubated with patients' serum (1:10 diluted in blocking buffer). Then, the membrane was washed (with blocking buffer, 3×10 minutes) to remove unspecifically bound antibodies. Specifically bound IgE-Ab were detected with the aid of an ^125I-labeled rabbit anti-human IgE antibody. After the membrane had been exposed to an X-ray film, the results were available: […]"}, "[4]": {"biological_target": "T1, Cladosporium herbarum mannitol dehydrogenase (Cladosporium herbarum, UniProt P0C0Y5)", "T1 construct": "the enzyme activity was determined with the traditionally purified protein; from tissue; host or cells: Cladosporium herbarum extract (ammonium sulfate precipitation, HIC, anion exchange)", "assay": "Enzyme activity determination, absorption of NADPH at 340 nm", "assay_type": "biochemical", "protocol": "The experiments reveal that the highly purified major allergen of Cladosporium herbarum is indeed a mannitol dehydrogenase which catalyzes the following metabolic reaction: Fructose+NADPH+H^+ ? mannitol+NADP^+. […] The method of the activity determination is described in example 3.\nTo confirm the results according to the invention, the enzyme activity was determined with the traditionally purified protein. The absorption of NADPH was measured in a photometer at 340 nm.\n• 50 mM Tris-HCl, pH 7.5 • 0.25 mM NADPH or NADH • D-fructose or fructose-6-phosphate (0.1; 0.2; 0.4; 0.6; 0.8; 1.0; 1.2 M) • H2O to 1 ml • the reaction is started with 0.5 μl of MtDH Results: • Reaction with fructose and NADPH • No reaction with fructose-6-phosphate and NADH"}, "[5]": {"assay": "Two-dimensional separation by isoelectric focusing and SDS-PAGE", "assay_type": "physicochemical", "from_the_text": "as §1"}}, "data": [{"molecule": "protein prepared in accordance with example 10: recombinantly produced Alternaria alternata mannitol dehydrogenase, seq. ID No. 11, purified over a nickel chelate column, approximately 30 kD (protein, listed as Alternaria alternata) MPITVPQATELKDLFSLKGKVVIVTGASGPTGIGTEAARGCAEYGADLAITYNSRAEGAEKNAKEMSEKYGVKVKAYKCQVNEYAQCEKLVQDVIKDFGKVDVFIANAGKTADNGILDATVEQWNEVIQTDLTGTFNCARAVGLHFRERKTGSLVITSSMSGHIANFPQEQASYNVAKAGCIHLAKSLANEWRDFARVNSISPGYIDTGLSDFVPQDIQKLWHSMIPMGRDAKATELKGAYVYFASDASSYCTGSDLLIDGGYCVR", "values": [{"measurement": "share of Alternaria alternata-sensitized patients with a pronounced band", "setting": "[1]; 28 sera", "result": "approximately 32%"}, {"measurement": "patients' sera with a pronounced band in the immune blot", "setting": "[1]; of 28 sera positive to Alternaria alternata crude extract", "result": 9}]}, {"molecule": "native purified MtDH: major allergen of Cladosporium herbarum, a NADP-dependent mannitol dehydrogenase, 29 kD, seq. ID No. 8 (protein, listed as Cladosporium herbarum) MPGQQATKHESLLDQLSLKGKVVVVTGASGPKGMGIEAARGCAEMGAAVAITYASRAQGAEENVKELEKTYGIKAKAYKCQVDSYESCEKLVKDVVADFGQIDAFIANAGATADSGILDGSVEAWNHVVQVDLNGTFHCAKAVGHHFKERGTGSLVITASMSGHIANFPQEQTSYNVAKAGCIHMARSLANEWRDFARVNSISPGYIDTGLSDFVPKETQQLWHSMIPMGRDGLAKELKGAYVYFASDASTYTTGADLLIDGGYTTR", "values": [{"measurement": "patients' sera recognizing the protein", "setting": "IgE of patients' sera", "result": 61, "unit": "%"}, {"measurement": "reaction with IgE antibodies of C. herbarum allergy sufferers", "setting": "[2]; SDS gel, patients' serum 1:10, 125I-labeled anti-human IgE", "result": "reacts specifically"}, {"measurement": "result in the IgE immunoblot", "setting": "[2]; pool of six patients", "result": "highly positive"}, {"measurement": "reaction with IgE antibodies of C. herbarum allergy sufferers", "setting": "[3]", "result": "reacts specifically"}, {"measurement": "enzyme reaction", "setting": "[4]; with fructose and NADPH", "result": "Reaction"}, {"measurement": "enzyme reaction", "setting": "[4]; with fructose-6-phosphate and NADH", "result": "No reaction"}, {"measurement": "isoelectric point", "setting": "[5]", "result": 5.8}]}]}
